Assay results reported in patent US20170029841A1, “METHODS AND COMPOSITIONS FOR SELECTIVE REGULATION OF PROTEIN EXPRESSION” (priority 2015, published 2017).
Like-named read-outs stand apart in the source and are kept apart here.

Columns and labels:
transgenic maize plants = details: for AES90+8 (LSD = 10): average anther extrusion at S90+8, same glyphosate regimen; for CIPVT (LSD = 8.1): glyphosate 1.5 lbs ae/acre at V2, 0.75 at V8, 0.75 at V10, range over events; for Seed Yield bu/acre (LSD = 24.7): end of season; for Avg. plant height (inches) (LSD = 6.9): in vivo
[1] = tested on: transgenic maize R0 plants (double copy events); test: R0 plant greenhouse glyphosate spray: vegetative tolerance and induced male sterility; format: in vivo; details: for % Vegetative Tolerant / % Vegetative Tolerance: glyphosate 0.75 lb ae/acre at V5 then V8; for % Vegetative Tolerant: <=10% injury 7 days after V5 spray
Protocol: Transformation vectors containing the recombinant DNA constructs were used with an Agrobacterium-based transformation method and maize immature embryos and techniques known in the art. Leaf samples of R0 plants were collected and molecular analysis was conducted to select transgenic plants containing a single copy (one insertion) or a double copy (two independent insertions) of the recombinant DNA construct and no presence of vector backbone. Single copy events were not sprayed with glyphosate and were selfed and advanced for R1 seed collection, while double copy events were used for R0 glyphosate spray to assess vegetative tolerance and induced male sterility. Transgenic plants that were not sprayed with glyphosate had normal anthesis, normal pollen shedding, and normal pollen development as determined by Alexandar staining and microscopic observation.
Double copy R0 events were used in testing to approximate a single copy homozygous event. Plants were sprayed with glyphosate at two different growth stages to determine if the presence of the mts-siRNA target element in the recombinant DNA construct provided vegetative glyphosate tolerance and glyphosate-induced tassel sterility. The plants were sprayed in a greenhouse with 1× glyphosate (0.75 lb ae/acre) applied at the V5 stage followed by 1× glyphosate (0.75 lb ae/acre) applied at the V8 stage. Seven days after the V5 stage glyphosate application, plants were scored for vegetative injury with scores of ≦10% injury considered as showing vegetative glyphosate tolerance (% Vegetative Tolerant). Male sterility was measured in two ways. […] Anthers were then collected and dissected to microscopically observe pollen development. Anthers for each event were tested for no viable pollen grains produced as detected by Alexandar staining under microscopic observation and scored as not producing any viable pollen (% No Pollen). In plants not sprayed with glyphosate, tassel development, anther extrusion, and pollen development were normal.
The mts-siRNA target elements were tested in multiple transformation vector configurations. Each transformation vector was used to produce multiple R0 plants with each R0 plant representing a unique transgenic event made using the same transformation vector. Data for three different transformation vector configurations are provided as Tables 11 and 12.

[2] = vector configuration A, no anther extrusion up to S90+12 after V8 glyphosate
[3] = vector configuration A, no viable pollen by Alexandar staining

B1: SEQ ID NO: 6: mts-siRNA target element, nucleotide positions 370 to 477 of cDNA SEQ ID NO: 19 (nucleic acid)
DNA: TCGCCGAGAAGGGAGTAGTAGTATTACCTGATATCTATGCTAATTCAGGTGGTGTGGTCGTTAGCTACTTTAATTGAGTGGGTTCAGAACATTCAAGGTTTCATGTGG
modifications: chemistry not fully specified; the letters are possibly those of the target site
AES90+8 (LSD = 10) (transgenic maize plants; listed as 6): 25% | CIPVT (LSD = 8.1) (transgenic maize plants): No significant difference | CIPVT (LSD = 8.1) (transgenic maize plants; listed as 6): 3.75% | % Vegetative Tolerant ([1]; vector configuration A): 90% | % Completely Male-sterile [1, 2]: 82% | % No Pollen [1, 3]: 0%

B2: SEQ ID NO: 7: mts-siRNA target element, nucleotide positions 1357 to 1562 of cDNA SEQ ID NO: 20 (nucleic acid)
DNA: GGAACCGGTGACCAGCTGCACGACGATGAATCCTACAAGACGACCATGTAATACACAGTGTCGTCCTCTTCGTTCTACTACTCAACAGAGCAGTCGCCGACCAATAACGAATGGAGTATTATCTCTGTCCTTCACCTTACACCATATTCACACCATAGAACTGCAAATGTCCGAGGTACCAACTAACATCGGTACCTTTGGCATGA
modifications: Zea mays
AES90+8 (LSD = 10) (transgenic maize plants): 0-1.5% | AES90+8 (LSD = 10) (transgenic maize plants; listed as 7): 0-1.5% | Seed Yield bu/acre (LSD = 24.7) (transgenic maize plants): no significant decrease | Seed Yield bu/acre (LSD = 24.7) (transgenic maize plants; listed as 7): 100-110 bu/acre | CIPVT (LSD = 8.1) (transgenic maize plants): No significant difference | CIPVT (LSD = 8.1) (transgenic maize plants; listed as 7): 3.75-5% | Avg. plant height (inches) (LSD = 6.9) (transgenic maize plants): No significant difference | Avg. plant height (inches) (LSD = 6.9) (transgenic maize plants; listed as 7): 79.8 inches | % Vegetative Tolerant ([1]; vector configuration A, listed as 7): 88% | % Completely Male-sterile ([1]; vector configuration A, no anther extrusion up to S90+12 after V8 glyphosate, listed as 7): 100% | % No Pollen [1, 3]: 44%

B3: SEQ ID NO: 12: recombinant mts-siRNA target element sequence (nucleic acid)
DNA: AGACGACGACCGTGCATGGTGATGAATCACAGACGACGAACACGCATGTCGCATCGCCGTCCTCTCACACCATAGAACTGCAAATGTCCGCTCTTCACCGTTGTAGTCGTTGATGGTATTGGTGGTGACGACATCCTTGGTGTGCATGCACTGGTGAGTCACTGTTGTAC
% Completely Male-sterile ([1]; vector configuration B): 50% | % No Pollen ([1]; vector configuration B): 20% | % Vegetative Tolerance ([1]; vector configuration B): 100% | % Completely Male-sterile ([1]; vector configuration C): 23% | % No Pollen ([1]; vector configuration C): 0% | % Vegetative Tolerance ([1]; vector configuration C): 87%

B4: SEQ ID NO: 4: mts-siRNA target element, nucleotide positions 477 to 697 of cDNA SEQ ID NO: 18 (nucleic acid)
DNA: ACGAGGGAATGTCATTGGTCGATGAGTTGGAGGCGTCAAATGCAGATAAAGCTACAACTTCCATGTGGAGGATGACTGCGACGTTGTGGCAGACTCATCCACTACAGTGAGAGTCTAGGAAAGCATGAAGCCGATTGTGGACATCGATGTCGGTGTCAAGGACTTATAGATGTCATGTTGGGAGAGCAACCATGGCACGATAGTTAAGGCGCAAGGGTATC
modifications: Zea mays
AES90+8 (LSD = 10) (transgenic maize plants; listed as 4): 16.25-18.75% | Seed Yield bu/acre (LSD = 24.7) (transgenic maize plants): 70-80 bu/acre | CIPVT (LSD = 8.1) (transgenic maize plants): No significant difference | CIPVT (LSD = 8.1) (transgenic maize plants; listed as 4): 1.25-3.75% | % Vegetative Tolerant ([1]; vector configuration A): 86% | % Completely Male-sterile [1, 2]: 7% | % No Pollen [1, 3]: 0%

B5: SEQ ID NO: 11: recombinant mts-siRNA target element sequence (nucleic acid)
DNA: AGACGACGACCGTGCATGGTGATGAATCACAGACGACGAACACGCATGTCGCATCGCCGTCCTCTCACACCATAGAACTGCAAATGTCCGACAACAAGCACCTTCTTGCCTTGCAGTATTGGTGGTGACGACATCCTTGGTGTGCATGCACTGGTGAGTCACTGT
% Completely Male-sterile ([1]; vector configuration B): 50% | % No Pollen ([1]; vector configuration B): 0% | % Vegetative Tolerance ([1]; vector configuration B): 100% | % Completely Male-sterile ([1]; vector configuration C): 80% | % No Pollen ([1]; vector configuration C): 0% | % Vegetative Tolerance ([1]; vector configuration C): 55%

B6: SEQ ID NO: 10: recombinant mts-siRNA target element sequence (nucleic acid)
DNA: AGACGACGACCGTGCATGGTGATGAATCACAGACGACGAACACGCATGTCGCATCGCCGTCCTCTCACACCATAGAACTGCAAATGTCCG
modifications: expressed or natural sequence; target site or template, no part of the molecule
% Completely Male-sterile ([1]; vector configuration B): 55% | % No Pollen ([1]; vector configuration B): 22% | % Vegetative Tolerance ([1]; vector configuration B): 90% | % Completely Male-sterile ([1]; vector configuration C): 100% | % No Pollen ([1]; vector configuration C): 0% | % Vegetative Tolerance ([1]; vector configuration C): 83%

B7: SEQ ID NO: 5: mts-siRNA target element, nucleotide positions 239 to 433 of cDNA SEQ ID NO: 19 (nucleic acid)
DNA: TGGCTGCTTCTGTTGGCGTGAAAGCTCGAGTGCTCCTAAATGGTCGTCGTATTAGCTGATACGACATCTACCCGATGCAATAGATAATATTGTTTACACGCGTGAGTC
modifications: chemistry not fully specified; the letters are possibly those of the target site
AES90+8 (LSD = 10) (transgenic maize plants; listed as 5): 10%-20% | CIPVT (LSD = 8.1) (transgenic maize plants): No significant difference | CIPVT (LSD = 8.1) (transgenic maize plants; listed as 5): 5% | % Vegetative Tolerant ([1]; vector configuration A, listed as 5): 90% | % Completely Male-sterile ([1]; vector configuration A, no anther extrusion up to S90+12 after V8 glyphosate, listed as 5): 50% | % No Pollen [1, 3]: 0%

B8: SEQ ID NO: 3: mts-siRNA target element, nucleotide positions 239 to 433 of cDNA SEQ ID NO: 18 (nucleic acid)
DNA: TCTAGCCACACGGTCACGTTTGGACGACCAATAATAGGCTTGCAACCCTTCAAATTGTGTCCATCAGCTTCCCAACGTGCATATCGCCATCCTCTGCTTCGTGTCCCATGTCACCACCCCCACTCTTCCTCTTTACATGCAATGCAAATAAAGCAGATCCAACGTGGATGAGGGTGAATCGGATGTTGAGGTGGG
modifications: Zea mays
% Vegetative Tolerant ([1]; vector configuration A): 90% | % Completely Male-sterile [1, 2]: 10% | % No Pollen [1, 3]: 0%

B9: SEQ ID NO: 1: mts-siRNA target element, 95% identity to nucleotide positions 1429 to 1628 of cDNA SEQ ID NO: 17 (nucleic acid)
DNA: AGACGACGACCGTGCATGGTGATGAATCACAGACGACGAACACGCATGTCGCATCGCCGTCCTCTTTGTATCACACAGCATCACCTTCTTCGCTCTACTACTCCCCCGAGCAATCACCGACCAATAACACCAACCATCAACCTCCCCCGTCGCCGCCGCCTTCACCGTCCTCCCCTCACACCATAGAACTGCAAATGTCCG
AES90+8 (LSD = 10) (transgenic maize plants): 0-2.75% | AES90+8 (LSD = 10) (transgenic maize plants; listed as 1): 0-2.75% | Seed Yield bu/acre (LSD = 24.7) (transgenic maize plants): no significant decrease | Seed Yield bu/acre (LSD = 24.7) (transgenic maize plants; listed as 1): 97-99 bu/acre | CIPVT (LSD = 8.1) (transgenic maize plants): No significant difference | CIPVT (LSD = 8.1) (transgenic maize plants; listed as 1): 2.5-6.25% | Avg. plant height (inches) (LSD = 6.9) (transgenic maize plants): No significant difference | Avg. plant height (inches) (LSD = 6.9) (transgenic maize plants; listed as 1): 84.75 inches | % Completely Male-sterile ([1]; vector configuration B): 100% | % No Pollen ([1]; vector configuration B): 100% | % Vegetative Tolerance ([1]; vector configuration B): 67% | % Completely Male-sterile ([1]; vector configuration C): 100% | % No Pollen ([1]; vector configuration C): 60% | % Vegetative Tolerance ([1]; vector configuration C): 38%
